Publication PMC5424160, “Menin enhances c-Myc-mediated transcription to promote cancer progression” (Nature Communications, 2017)

Biological target: T1, GST-CycT1 (UniProt O60563 1-726)
T1 construct: Cyclin T1, cDNA cloned into pGEX-4T-1; also called GST fused CycT1 protein; source: Escherichia coli (DE3), purified
Assay: pull-down; GST pull-down: purified GST fused protein as bait and purified His-tag protein; pull-down buffer 150 mM NaCl, 50 mM Tris pH 7.5, 0.1% NP-40, 5 mM DTT; western blot
Conditions: both partners purified

T1 sequence (O60563 whole entry, the tested form may be a part): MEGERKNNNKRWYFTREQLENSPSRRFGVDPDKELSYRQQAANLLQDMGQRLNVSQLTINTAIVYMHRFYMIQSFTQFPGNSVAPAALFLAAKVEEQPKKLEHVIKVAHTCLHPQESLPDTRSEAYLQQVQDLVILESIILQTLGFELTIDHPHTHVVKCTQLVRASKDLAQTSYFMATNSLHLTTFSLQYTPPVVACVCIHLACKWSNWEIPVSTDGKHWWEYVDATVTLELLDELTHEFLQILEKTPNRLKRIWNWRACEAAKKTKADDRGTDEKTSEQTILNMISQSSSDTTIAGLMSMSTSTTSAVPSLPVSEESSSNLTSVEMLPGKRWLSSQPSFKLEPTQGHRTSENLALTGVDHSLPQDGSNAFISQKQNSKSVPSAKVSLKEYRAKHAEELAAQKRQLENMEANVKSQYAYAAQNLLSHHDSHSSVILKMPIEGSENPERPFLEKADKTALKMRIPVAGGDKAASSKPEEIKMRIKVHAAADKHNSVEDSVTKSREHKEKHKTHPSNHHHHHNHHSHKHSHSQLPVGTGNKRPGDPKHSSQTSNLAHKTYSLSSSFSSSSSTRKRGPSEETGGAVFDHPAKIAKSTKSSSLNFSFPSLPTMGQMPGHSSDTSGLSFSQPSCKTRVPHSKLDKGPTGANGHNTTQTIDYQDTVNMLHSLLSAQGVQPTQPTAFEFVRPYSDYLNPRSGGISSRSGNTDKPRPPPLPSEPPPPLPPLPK

binding result: binds
B1: His-Menin (natural protein, UniProt O00255 1-610, looked up)
chain: MGLKAAQKTLFPLRSIDDVVRLFAAELGREEPDLVLLSLVLGFVEHFLAVNRVIPTNVPELTFQPSPAPDPPGGLTYFPVADLSIIAALYARFTAQIRGAVDLSLYPREGGVSSRELVKKVSDVIWNSLSRSYFKDRAHIQSLFSFITGTKLDSSGVAFAVVGACQALGLRDVHLALSEDHAWVVFGPNGEQTAEVTWHGKGNEDRRGQTVNAGVAERSWLYLKGSYMRCDRKMEVAFMVCAINPSIDLHTDSLELLQLQQKLLWLLYDLGHLERYPMALGNLADLEELEPTPGRPDPLTLYHKGIASAKTYYRDEHIYPYMYLAGYHCRNRNVREALQAWADTATVIQDYNYCREDEEIYKEFFEVANDVIPNLLKEAASLLEAGEERPGEQSQGTQSQGSALQDPECFAHLLRFYDGICKWEEGSPTPVLHVGWATFLVQSLGRFEGQVRQKVRIVSREAEAAEAEEPWGEEAREGRRRGPRRESKPEEPPPPKKPALDKGLGTGQGAVSGPPRKPPGTVAGTARGPEGGSTAQVPAPTASPPPEGPVLTFQSEKMKGMKELLVATKINSSAIKLQLTAQSQVQMKKQKVSTPSDYTLSFLKRQRKGL
notes: Menin, MEN1 cDNA cloned into pET-22b (+); also called His-tagged Menin protein; recombinant His-Menin protein; source: Escherichia coli (DE3), purified
